Results: patent US20160145657A1, “Methods and Materials for Producing 7-Carbon Chemicals via a C9 Route” (INVISTA North America S.á.r.l., priority 2014, published 2016)

B1: SEQ ID NO 12: Vibrio fluvialis ω-transaminase, Genbank Accession No. AEA39183.1 (protein)
chain: MNKPQSWEARAETYSLYGFTDMPSLHQRGTVVVTHGEGPYIVDVNGRRYLDANSGLWNMVAGFDHKGLIDAAKAQYERFPGYHAFFGRMSDQTVMLSEKLVEVSPFDSGRVFYTNSGSEANDTMVKMLWFLHAAEGKPQKRKILTRWNAYHGVTAVSASMTGKPYNSVFGLPLPGFVHLTCPHYWRYGEEGETEEQFVARLARELEETIQREGADTIAGFFAEPVMGAGGVIPPAKGYFQAILPILRKYDIPVISDEVICGFGRTGNTWGCVTYDFTPDAIISSKNLTAGFFPMGAVILGPELSKRLETAIEAIEEFPHGFTASGHPVGCAIALKAIDVVMNEGLAENVRRLAPRFEERLKHIAERPNIGEYRGIGFMWALEAVKDKASKTPFDGNLSVSERIANTCTDLGLICRPLGQSVVLCPPFILTEAQMDEMFDKLEKALDKVFAEVA
B2: SEQ ID NO 9: Pseudomonas syringae ω-transaminase, Genbank Accession No. AAY39893.1 (protein)
chain: MSANNPQTLEWQALSSEHHLAPFSDYKQLKEKGPRIITRAEGVYLWDSEGNKILDGMSGLWCVAIGYGREELADAASKQMRELPYYNLFFQTAHPPVLELAKAISDIAPEGMNHVFFTGSGSEGNDTMLRMVRHYWALKGQPNKKTIISRVNGYHGSTVAGASLGGMTYMHEQGDLPIPGVVHIPQPYWFGEGGDMTPDEFGIWAAEQLEKKILELGVENVGAFIAEPIQGAGGVIVPPDSYWPKIKEILSRYDILFAADEVICGFGRTSEWFGSDFYGLRPDMMTIAKGLTSGYVPMGGLIVRDEIVAVLNEGGDFNHGFTYSGHPVAAAVALENIRILREEKIVERVRSETAPYLQKRLRELSDHPLVGEVRGVGLLGAIELVKDKTTRERYTDKGAGMICRTFCFDNGLIMRAVGDTMIIAPPLVISFAQIDELVEKARTCLDLTLAVLQG
B3: SEQ ID NO 3: Mycobacterium smegmatis carboxylate reductase, Genbank Accession No. ABK71854.1 (protein)
chain: MTSDVHDATDGVTETALDDEQSTRRIAELYATDPEFAAAAPLPAVVDAAHKPGLRLAEILQTLFTGYGDRPALGYRARELATDEGGRTVTRLLPRFDTLTYAQVWSRVQAVAAALRHNFAQPIYPGDAVATIGFASPDYLTLDLVCAYLGLVSVPLQHNAPVSRLAPILAEVEPRILTVSAEYLDLAVESVRDVNSVSQLVVFDHHPEVDDHRDALARAREQLAGKGIAVTTLDAIADEGAGLPAEPIYTADHDQRLAMILYTSGSTGAPKGAMYTEAMVARLWTMSFITGDPTPVINVNFMPLNHLGGRIPISTAVQNGGTSYFVPESDMSTLFEDLALVRPTELGLVPRVADMLYQHHLATVDRLVTQGADELTAEKQAGAELREQVLGGRVITGFVSTAPLAAEMRAFLDITLGAHIVDGYGLTETGAVTRDGVIVRPPVIDYKLIDVPELGYFSTDKPYPRGELLVRSQTLTPGYYKRPEVTASVFDRDGYYHTGDVMAETAPDHLVYVDRRNNVLKLAQGEFVAVANLEAVFSGAALVRQIFVYGNSERSFLLAVVVPTPEALEQYDPAALKAALADSLQRTARDAELQSYEVPADFIVETEPFSAANGLLSGVGKLLRPNLKDRYGQRLEQMYADIAATQANQLRELRRAAATQPVIDTLTQAAATILGTGSEVASDAHFTDLGGDSLSALTLSNLLSDFFGFEVPVGTIVNPATNLAQLAQHIEAQRTAGDRRPSFTTVHGADATEIRASELTLDKFIDAETLRAAPGLPKVTTEPRTVLLSGANGWLGRFLTLQWLERLAPVGGTLITIVRGRDDAAARARLTQAYDTDPELSRRFAELADRHLRVVAGDIGDPNLGLTPEIWHRLAAEVDLVVHPAALVNHVLPYRQLFGPNVVGTAEVIKLALTERIKPVTYLSTVSVAMGIPDFEEDGDIRTVSPVRPLDGGYANGYGNSKWAGEVLLREAHDLCGLPVATFRSDMILAHPRYRGQVNVPDMFTRLLLSLLITGVAPRSFYIGDGERPRAHYPGLTVDFVAEAVTTLGAQQREGYVSYDVMNPHDDGISLDVFVDWLIRAGHPIDRVDDYDDWVRRFETALTALPEKRRAQTVLPLLHAFRAPQAPLRGAPEPTEVFHAAVRTAKVGPGDIPHLDEALIDKYIRDLREFGLI

How the values were obtained:
Assay type in all cases: biochemical
[1] = ω-transaminase activity, forward direction (pimelate semialdehyde to 7-aminoheptanoate), pyruvate formation by RP-HPLC; conditions: for acceptance of pimelate semialdehyde as substrate (conversion of L-alanine to pyruvate) against the empty vector control: cell free extract, 10 mM pimelate semialdehyde, 10 mM L-alanine, pH 7.5, 25° C., 4 h, FIG. 14; for reversibility of ω-transaminase activity: pimelate semialdehyde accepted, 7-aminoheptanoate synthesized: conclusion from reverse and forward assays of Example 1
Description: (§1) A nucleotide sequence encoding an N-terminal His-tag was added to the nucleic acid sequences from Chromobacterium violaceum, Pseudomonas syringae, Rhodobacter sphaeroides, and Vibrio fluvialis encoding the ω-transaminases of SEQ ID NOs: 7, 9, 10 and 12, respectively (see FIG. 6) such that N-terminal HIS tagged ω-transaminases could be produced. Each of the resulting modified genes was cloned into a pET21a expression vector under control of the T7 promoter and each expression vector was transformed into a BL21[DE3] E. coli host. The resulting recombinant E. coli strains were cultivated at 37° C. in a 250 mL shake flask culture containing 50 mL LB media and antibiotic selection pressure, with shaking at 230 rpm. Each culture was induced overnight at 16° C. using 1 mM IPTG.
(§2) The pellet from each induced shake flask culture was harvested via centrifugation. Each pellet was resuspended and lysed via sonication. The cell debris was separated from the supernatant via centrifugation and the cell free extract was used immediately in enzyme activity assays.
Enzyme activity in the forward direction (i.e., pimelate semialdehyde to 7-aminoheptanoate) was confirmed for the transaminases of SEQ ID NO 9, SEQ ID NO 10 and SEQ ID NO 12. Enzyme activity assays were performed in a buffer composed of a final concentration of 50 mM HEPES buffer (pH=7.5), 10 mM pimelate semialdehyde, 10 mM L-alanine and 100 μM pyridoxyl 5′ phosphate. Each enzyme activity assay reaction was initiated by adding a cell free extract of the ω-transaminase gene product or the empty vector control to the assay buffer containing the pimelate semialdehyde and incubated at 25° C. for 4 h, with shaking at 250 rpm. The formation of pyruvate was quantified via RP-HPLC.

[2] = ω-transaminase activity, reverse direction (7-aminoheptanoate to pimelate semialdehyde), L-alanine formation by RP-HPLC; conditions: cell free extract, 10 mM 7-aminoheptanoate, 10 mM pyruvate, pH 7.5, 25° C., 4 h; FIG. 13
Description: as §1, §2
Enzyme activity assays in the reverse direction (i.e., 7-aminoheptanoate to pimelate semialdehyde) were performed in a buffer composed of a final concentration of 50 mM HEPES buffer (pH=7.5), 10 mM 7-aminoheptanoate, 10 mM pyruvate and 100 μM pyridoxyl 5′ phosphate. Each enzyme activity assay reaction was initiated by adding cell free extract of the ω-transaminase gene product or the empty vector control to the assay buffer containing the 7-aminoheptanoate and incubated at 25° C. for 4 h, with shaking at 250 rpm. The formation of L-alanine from pyruvate was quantified via RP-HPLC.

[3] = ω-transaminase activity, 7-aminoheptanol to 7-oxoheptanol, L-alanine formation by RP-HPLC; conditions: for acceptance of 7-aminoheptanol as substrate (conversion of pyruvate to L-alanine) against the empty vector control: cell free extract, 10 mM 7-aminoheptanol, 10 mM pyruvate, pH 7.5, 25° C., 4 h, FIG. 17; for acceptance of 7-oxoheptanol as substrate forming 7-aminoheptanol, concluded from reversibility: inferred from reverse direction assay and Example 1
Description: A nucleotide sequence encoding an N-terminal His-tag was added to the Chromobacterium violaceum, Pseudomonas syringae and Rhodobacter sphaeroides nucleic acids encoding the ω-transaminases of SEQ ID NOs: 7, 9 and 10, respectively (see FIG. 6) such that N-terminal HIS tagged ω-transaminases could be produced. The modified genes were cloned into a pET21a expression vector under the T7 promoter. Each expression vector was transformed into a BL21[DE3] E. coli host. Each resulting recombinant E. coli strain were cultivated at 37° C. in a 250 mL shake flask culture containing 50 mL LB media and antibiotic selection pressure, with shaking at 230 rpm. Each culture was induced overnight at 16° C. using 1 mM IPTG.
as §2
Enzyme activity assays in the reverse direction (i.e., 7-aminoheptanol to 7-oxoheptanol) were performed in a buffer composed of a final concentration of 50 mM HEPES buffer (pH=7.5), 10 mM 7-aminoheptanol, 10 mM pyruvate, and 100 μM pyridoxyl 5′ phosphate. Each enzyme activity assay reaction was initiated by adding cell free extract of the ω-transaminase gene product or the empty vector control to the assay buffer containing the 7-aminoheptanol and then incubated at 25° C. for 4 h, with shaking at 250 rpm. The formation of L-alanine was quantified via RP-HPLC.

[4] = carboxylate reductase activity, N7-acetyl-7-aminoheptanoate to N7-acetyl-7-aminoheptanal, NADPH consumption at 340 nm; conditions: purified enzyme enhanced by sfp gene product, 2 mM N7-acetyl-7-aminoheptanoate, pH 7.5, room temperature, 20 min; FIG. 10
Description: The activity of each of the N-terminal His-tagged carboxylate reductases of SEQ ID NOs: 3, 5, and 6 (see Examples 2 and 3, and FIG. 6) for converting N7-acetyl-7-aminoheptanoate to N7-acetyl-7-aminoheptanal was assayed in triplicate in a buffer composed of a final concentration of 50 mM HEPES buffer (pH=7.5), 2 mM N7-acetyl-7-aminoheptanoate, 10 mM MgCl2, 1 mM ATP, and 1 mM NADPH. The assays were initiated by adding purified carboxylate reductase and phosphopantetheine transferase or the empty vector control to the assay buffer containing the N7-acetyl-7-aminoheptanoate then incubated at room temperature for 20 min. The consumption of NADPH was monitored by absorbance at 340 nm.

| Molecule | acceptance of pimelate semialdehyde as substrate (conversion of L-alanine to pyruvate) against the empty vector control [1] | reversibility of ω-transaminase activity: pimelate semialdehyde accepted, 7-aminoheptanoate synthesized [1] | acceptance of 7-aminoheptanoate as substrate (conversion of pyruvate to L-alanine) against the empty vector control [2] | acceptance of 7-aminoheptanol as substrate (conversion of pyruvate to L-alanine) against the empty vector control [3] | acceptance of 7-oxoheptanol as substrate forming 7-aminoheptanol, concluded from reversibility [3] | acceptance of N7-acetyl-7-aminoheptanoate as substrate (NADPH consumption) against the empty vector control [4] |
| --- | --- | --- | --- | --- | --- | --- |
| SEQ ID NO 10: Rhodobacter sphaeroides ω-transaminase, Genbank Accession No. ABA81135.1 | accepted pimelate semialdehyde as substrate | accepted pimelate semialdehyde as substrate and synthesized 7-aminoheptanoate as a reaction product | accepted 7-aminoheptanote as substrate | accepted 7-aminoheptanol as substrate | accept 7-oxoheptanol as substrate and form 7-aminoheptanol |  |
| B1 | accepted pimelate semialdehyde as substrate | accepted pimelate semialdehyde as substrate and synthesized 7-aminoheptanoate as a reaction product | accepted 7-aminoheptanote as substrate |  |  |  |
| B2 | accepted pimelate semialdehyde as substrate | accepted pimelate semialdehyde as substrate and synthesized 7-aminoheptanoate as a reaction product | accepted 7-aminoheptanote as substrate | accepted 7-aminoheptanol as substrate | accept 7-oxoheptanol as substrate and form 7-aminoheptanol |  |
| B3 |  |  |  |  |  | accepted N7-acetyl-7-aminoheptanoate as substrate |
